The target in experiment [1] is T1, N^α -AT (AAA1 N^α -acetyltransferase) (Saccharomyces cerevisiae, UniProt P07347+P12945).
T1 construct: isolates N^α -acetyltransferase by treating yeast cells with lyticase; endogenous in cells; host or cells: Saccharomyces cerevisiae cells (native enzyme)
T1 sequence (P12945 2-854): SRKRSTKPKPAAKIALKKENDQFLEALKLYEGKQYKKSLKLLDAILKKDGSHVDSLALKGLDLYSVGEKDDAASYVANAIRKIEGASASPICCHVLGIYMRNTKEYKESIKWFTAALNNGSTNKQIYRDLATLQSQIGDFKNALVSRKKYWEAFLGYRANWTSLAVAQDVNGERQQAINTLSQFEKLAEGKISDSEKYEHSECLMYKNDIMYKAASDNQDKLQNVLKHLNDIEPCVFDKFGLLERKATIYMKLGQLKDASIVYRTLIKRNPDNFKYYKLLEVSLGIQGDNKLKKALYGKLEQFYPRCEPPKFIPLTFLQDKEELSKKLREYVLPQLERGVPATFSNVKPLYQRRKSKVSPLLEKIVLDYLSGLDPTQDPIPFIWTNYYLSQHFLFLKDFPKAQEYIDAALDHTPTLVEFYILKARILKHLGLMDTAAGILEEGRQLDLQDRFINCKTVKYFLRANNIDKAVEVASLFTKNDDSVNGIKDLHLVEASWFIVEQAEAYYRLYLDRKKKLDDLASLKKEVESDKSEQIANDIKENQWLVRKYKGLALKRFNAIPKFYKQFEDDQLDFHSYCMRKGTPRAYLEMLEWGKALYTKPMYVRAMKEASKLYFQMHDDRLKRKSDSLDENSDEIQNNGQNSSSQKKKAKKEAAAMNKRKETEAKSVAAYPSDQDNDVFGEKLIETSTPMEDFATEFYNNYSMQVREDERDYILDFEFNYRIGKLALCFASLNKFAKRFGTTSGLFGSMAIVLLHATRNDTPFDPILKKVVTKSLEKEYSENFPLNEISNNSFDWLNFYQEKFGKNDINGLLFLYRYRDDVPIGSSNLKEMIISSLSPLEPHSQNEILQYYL
T1 sequence (P07347 1-238): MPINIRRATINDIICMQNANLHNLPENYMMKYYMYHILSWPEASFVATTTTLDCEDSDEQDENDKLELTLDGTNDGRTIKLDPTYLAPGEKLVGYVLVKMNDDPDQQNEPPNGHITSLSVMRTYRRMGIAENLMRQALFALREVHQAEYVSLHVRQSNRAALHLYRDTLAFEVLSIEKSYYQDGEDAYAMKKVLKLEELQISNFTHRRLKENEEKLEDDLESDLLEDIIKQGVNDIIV
The following applies: purified enzyme; Lee et al., J. Biol. Chem. 263:14948-14955 (1988); cited from earlier work.

Experiment [2] addresses T2, M-N^α -AT (methionine N^α -acetyltransferase) (Saccharomyces cerevisiae, UniProt Q06504).
T2 construct: endogenous in cells; host or cells: Saccharomyces cerevisiae aaa1 (AAA1-null) mutant
T2 sequence (Q06504 1-195): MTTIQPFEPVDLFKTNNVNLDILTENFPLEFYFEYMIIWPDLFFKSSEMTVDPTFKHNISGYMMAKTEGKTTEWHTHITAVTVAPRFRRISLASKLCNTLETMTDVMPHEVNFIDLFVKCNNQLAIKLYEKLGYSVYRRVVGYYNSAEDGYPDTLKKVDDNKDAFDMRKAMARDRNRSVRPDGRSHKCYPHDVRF
T2 sequence (Q12387 2-796 partner limits assumed): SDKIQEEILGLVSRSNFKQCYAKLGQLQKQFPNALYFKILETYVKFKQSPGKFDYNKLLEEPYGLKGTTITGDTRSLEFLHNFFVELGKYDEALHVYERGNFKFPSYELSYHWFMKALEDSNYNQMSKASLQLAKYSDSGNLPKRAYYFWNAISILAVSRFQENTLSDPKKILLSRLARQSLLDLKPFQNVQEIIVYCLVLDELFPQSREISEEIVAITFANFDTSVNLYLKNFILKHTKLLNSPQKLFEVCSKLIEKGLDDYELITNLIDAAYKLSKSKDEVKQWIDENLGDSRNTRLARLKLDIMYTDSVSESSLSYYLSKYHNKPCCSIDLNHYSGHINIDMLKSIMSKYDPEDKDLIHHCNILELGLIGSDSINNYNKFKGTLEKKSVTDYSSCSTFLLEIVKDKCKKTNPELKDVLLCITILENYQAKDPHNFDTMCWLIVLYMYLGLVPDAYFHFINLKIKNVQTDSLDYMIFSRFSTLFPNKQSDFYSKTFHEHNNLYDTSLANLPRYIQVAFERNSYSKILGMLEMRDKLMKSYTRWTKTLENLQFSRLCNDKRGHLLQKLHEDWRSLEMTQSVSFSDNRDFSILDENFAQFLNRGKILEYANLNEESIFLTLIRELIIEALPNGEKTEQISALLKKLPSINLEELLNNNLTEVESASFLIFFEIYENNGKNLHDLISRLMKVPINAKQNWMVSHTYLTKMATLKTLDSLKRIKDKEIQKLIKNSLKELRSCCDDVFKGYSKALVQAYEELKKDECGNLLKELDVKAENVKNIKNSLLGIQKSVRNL
Description: N^α-acetylation of synthetic peptides by methionine N^α-acetyltransferase. Type of experiment: biochemical. More on the design: concentration or dose not given beside the values. Here is the method:
(§1) Aliquots of the lysate were added to 1.5 ml Eppendorf tubes containing a reaction mixture of 50 mM HEPES, pH 7.4, 150 mM KCl, 1 mM DTT, 25 μM[^3 H]acetyl coenzyme A (0.5 μCi) and 50 μM ACTH (1-24) with an adjusted final volume of 100 μl. The assay mixture was incubated at 30 C for 30 min. The reaction was stopped by adding 0.5 M acetic acid and chilled in an ice bath. […] The radioactivity in the control represented acetylation of endogenous compounds is subtracted from each sample determination. One unit of activity is defined as 1 pmol of acetyl residues incorporated into ACTH (1-24) under standard assay conditions.
(§2) This second N^α -acetyltransferase is a methionine N^α -acetyltransferase activity, and is designated as "M-N^α -AT." This second N^α -acetyltransferase is the subject of U.S. patent application of John A. Smith and Fang-Jen S. Lee, filed Oct. […] In order to compare the relative specificity and activity of the AAA1 N^α -acetyltransferase ("N^α -AT") of the present invention with the methionine N^α -acetyltransferase activity (M-N^α -AT) of U.S. patent application of John A. Smith and Fang-Jen S. Lee, filed Oct. […] These peptides were assessed for their ability to serve as substrates for the two enzymes. In Table 2, the effect of the amino terminal amino acid on activity is investigated; in Table 3, the effect of the penultimate amino terminal amino acid on activity is investigated.

The target of experiment [3] is T1, N^α -AT (AAA1 N^α -acetyltransferase). Description: N^α-acetylation of synthetic peptides by AAA1 N^α-acetyltransferase ([3H]acetyl coenzyme A incorporation). Type of experiment: biochemical. More on the design: concentration or dose not given beside the values. Here is the method: as §1, §2
[4] abbreviates: Table 2: relative activity for N^α-acetylation of synthetic peptide substrate, influence of the amino terminal residue.
The mark [5] stands for this setting: Table 3: relative activity for N^α-acetylation of synthetic peptide substrate, influence of the penultimate amino terminal residue.

As for “SIPETQKGVIFYESHGKLEYKDIP (SIPETQKGVIFYESHGKLEYKDIP) [ALCOHOL DEHYDROGENASE I (1-24) (Yeast), synthetic peptide substrate, yeast alcohol dehydrogenase I residues 1-24, reference compound]”, in experiment [1], the “transfer of an acetyl group to synthetic peptide substrates by purified yeast N^α-acetyltransferase” value (“transfer of an acetyl group” below) is on record as “effectively transfer an acetyl group”. The “Activity (%) (mean activity ± S.D.) M-N^α -AT” value in experiment [2] (setting [4]) and in experiment [2] (setting [5]) was 0% throughout. The “Activity (%) (mean activity ± S.D.) N^α -AT” value in experiment [3] (setting [4]) and in experiment [3] (setting [5]) was 102 ± 5% each time.

Consider “SNPETQKGVIFYESHGKLEYKDIP (SNPETQKGVIFYESHGKLEYKDIP)”, for which the “Activity (%) (mean activity ± S.D.) M-N^α -AT” value in experiment [2] (setting [5]) worked out at 0%. In addition, in experiment [3] (setting [5]), the “Activity (%) (mean activity ± S.D.) N^α -AT” value turned out to be 116 ± 5%.

With “SPPETQKGVIFYESHGKLEYKDIP (SPPETQKGVIFYESHGKLEYKDIP)”, the “Activity (%) (mean activity ± S.D.) M-N^α -AT” value in experiment [2] (setting [5]) turned out to be 0%. For the same substance, the “Activity (%) (mean activity ± S.D.) N^α -AT” value in experiment [3] (setting [5]) is 0%.

Regarding “SQPETQKGVIFYESHGKLEYKDIP (SQPETQKGVIFYESHGKLEYKDIP)”, in experiment [2] (setting [5]), the “Activity (%) (mean activity ± S.D.) M-N^α -AT” value turned out to be 0%. The “Activity (%) (mean activity ± S.D.) N^α -AT” value in experiment [3] (setting [5]) was determined as 134 ± 7%.

In the case of “SRPETQKGVIFYESHGKLEYKDIP (SRPETQKGVIFYESHGKLEYKDIP)”, the “Activity (%) (mean activity ± S.D.) M-N^α -AT” value in experiment [2] (setting [5]) is 0%. For the same substance, the “Activity (%) (mean activity ± S.D.) N^α -AT” value in experiment [3] (setting [5]) is reported as 102 ± 5%.

For “SSPETQKGVIFYESHGKLEYKDIP (SSPETQKGVIFYESHGKLEYKDIP)”, the “Activity (%) (mean activity ± S.D.) M-N^α -AT” value in experiment [2] (setting [5]) is 0%. In addition, the “Activity (%) (mean activity ± S.D.) N^α -AT” value in experiment [3] (setting [5]) is 140 ± 6%.

For “STPETQKGVIFYESHGKLEYKDIP (STPETQKGVIFYESHGKLEYKDIP)”, the “Activity (%) (mean activity ± S.D.) M-N^α -AT” value in experiment [2] (setting [5]) amounted to 0%. Moreover, in experiment [3] (setting [5]), the “Activity (%) (mean activity ± S.D.) N^α -AT” value was determined as 144 ± 8%.

Consider “SVPETQKGVIFYESHGKLEYKDIP (SVPETQKGVIFYESHGKLEYKDIP)”, for which the “Activity (%) (mean activity ± S.D.) M-N^α -AT” value in experiment [2] (setting [5]) is given as 0%. Also, the “Activity (%) (mean activity ± S.D.) N^α -AT” value in experiment [3] (setting [5]) amounted to 123 ± 7%.

Take “SWPETQKGVIFYESHGKLEYKDIP (SWPETQKGVIFYESHGKLEYKDIP)”: the “Activity (%) (mean activity ± S.D.) M-N^α -AT” value in experiment [2] (setting [5]) was found to be 0%. Moreover, the “Activity (%) (mean activity ± S.D.) N^α -AT” value in experiment [3] (setting [5]) amounted to 91 ± 5%.

With “SYPETQKGVIFYESHGKLEYKDIP (SYPETQKGVIFYESHGKLEYKDIP)”, the “Activity (%) (mean activity ± S.D.) M-N^α -AT” value in experiment [2] (setting [5]) is listed as 0%. In experiment [3] (setting [5]), the “Activity (%) (mean activity ± S.D.) N^α -AT” value turned out to be 169 ± 8%.

In the case of “SYSMEHFRWGKPVGKKRRPVKVYP [ACTH (Human), reference compound]”, in experiment [1], the “transfer of an acetyl group” value is recorded as “effectively transfer an acetyl group”. The “Activity (%) (mean activity ± S.D.) M-N^α -AT” value in experiment [2] (setting [4]) and in experiment [2] (setting [5]) was 0% in each case. The “Activity (%) (mean activity ± S.D.) N^α -AT” value in experiment [3] (setting [4]) and in experiment [3] (setting [5]) was 100 ± 5% throughout.

On to “TIPETQKGVIFYESHGKLEYKDIP (TIPETQKGVIFYESHGKLEYKDIP)”, for which the “Activity (%) (mean activity ± S.D.) M-N^α -AT” value in experiment [2] (setting [4]) was 0%. The “Activity (%) (mean activity ± S.D.) N^α -AT” value in experiment [3] (setting [4]) was 103 ± 5%.

For “VIPETQKGVIFYESHGKLEYKDIP (VIPETQKGVIFYESHGKLEYKDIP)”, the “Activity (%) (mean activity ± S.D.) M-N^α -AT” value in experiment [2] (setting [4]) came to 0%. In addition, in experiment [3] (setting [4]), the “Activity (%) (mean activity ± S.D.) N^α -AT” value came to 69 ± 4%.

For “WIPETQKGVIFYESHGKLEYKDIP (WIPETQKGVIFYESHGKLEYKDIP)”, the “Activity (%) (mean activity ± S.D.) M-N^α -AT” value in experiment [2] (setting [4]) was 0%. Also, the “Activity (%) (mean activity ± S.D.) N^α -AT” value in experiment [3] (setting [4]) is listed as 0%.

For “YIPETQKGVIFYESHGKLEYKDIP (YIPETQKGVIFYESHGKLEYKDIP)”, in experiment [2] (setting [4]), the “Activity (%) (mean activity ± S.D.) M-N^α -AT” value is on record as 0%. The “Activity (%) (mean activity ± S.D.) N^α -AT” value in experiment [3] (setting [4]) amounted to 20 ± 2%.

In the case of “human superoxide dismutase (1-24): synthetic peptide substrate, residues 1-24 of human superoxide dismutase (ATKAVCVLKGDGPVQGIINFEQKE; UniProt P00441 2-25, looked up, fragment)”, in experiment [1], the “transfer of an acetyl group” value is “effectively transfer an acetyl group”.

Source of the values: patent publication US5210024A, “Isolation of strains of Saccharomyces cerevisiae having altered α-acetyltransferase activity” (priority 1991, dated 1993).
